The values below come from patent US20120039904A1 (Kyowa Kirin, published 2012).

Residue numbers refer to the chain shown, from its start.

The labels stand for the following.
T1: human ASCT2-myc/His (fusion protein in which myc/His was added to the C-terminal of human ASCT2), expressed … (human, UniProt Q15758 1-541)
T1 construct: Amino acid transporter with C-terminal myc/His tag, stably expressed in CHO/DG44 cells; cell lysates of these cells were used for Western blotting and immunoprecipitation; also called ASCT2/CHO; human ASCT2-myc/His gene-introduced CHO cell
T1 sequence: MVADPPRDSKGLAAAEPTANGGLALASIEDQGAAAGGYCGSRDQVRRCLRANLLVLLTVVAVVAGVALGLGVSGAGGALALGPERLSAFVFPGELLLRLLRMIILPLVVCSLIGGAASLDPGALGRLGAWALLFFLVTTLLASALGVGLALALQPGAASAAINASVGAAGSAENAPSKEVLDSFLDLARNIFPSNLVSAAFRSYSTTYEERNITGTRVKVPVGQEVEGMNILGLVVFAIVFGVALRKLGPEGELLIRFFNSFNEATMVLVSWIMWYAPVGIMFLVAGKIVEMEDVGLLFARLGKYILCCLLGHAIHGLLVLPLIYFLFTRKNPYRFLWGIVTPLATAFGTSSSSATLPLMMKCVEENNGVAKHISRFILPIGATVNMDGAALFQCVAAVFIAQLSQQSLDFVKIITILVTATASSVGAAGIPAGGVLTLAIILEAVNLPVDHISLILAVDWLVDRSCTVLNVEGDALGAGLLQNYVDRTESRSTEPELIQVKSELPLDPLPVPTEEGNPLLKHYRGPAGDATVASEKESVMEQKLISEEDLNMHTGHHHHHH

T2: mouse EL4 type ASCT2-myc/His (mouse/human chimeric ASCT2), expressed on CHO cells (human/mouse chimera, UniProt Q15758 1-541)
T2 construct: also called mEL4/CHO; mEL4
T2 sequence: T1 sequence with N367K

T3: human ASCT2 (system ASC amino acid transporter 2), endogenous on human tumour cell lines (human, UniProt Q15758 1-541)
T3 construct: Endogenous ASCT2 of cell lines KMS-11 (stated to express ASCT2 mRNA), WiDr and OPM-2; also called SLC1A5; ASCT2 on KMS-11, OPM-2, WiDr cells
T3 sequence: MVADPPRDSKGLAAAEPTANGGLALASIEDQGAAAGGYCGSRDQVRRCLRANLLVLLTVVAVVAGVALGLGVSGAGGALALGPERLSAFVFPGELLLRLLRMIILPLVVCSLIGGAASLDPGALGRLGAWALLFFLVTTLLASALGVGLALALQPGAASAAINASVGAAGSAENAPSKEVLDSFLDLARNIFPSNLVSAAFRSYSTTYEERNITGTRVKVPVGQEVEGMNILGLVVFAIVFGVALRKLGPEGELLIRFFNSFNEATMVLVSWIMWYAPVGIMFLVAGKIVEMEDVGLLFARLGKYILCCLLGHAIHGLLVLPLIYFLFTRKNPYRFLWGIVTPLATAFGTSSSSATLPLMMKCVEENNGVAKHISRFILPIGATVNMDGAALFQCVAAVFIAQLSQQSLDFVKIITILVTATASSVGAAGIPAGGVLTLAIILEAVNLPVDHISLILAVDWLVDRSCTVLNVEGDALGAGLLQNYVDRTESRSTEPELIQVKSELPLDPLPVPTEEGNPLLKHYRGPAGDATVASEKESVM

B1: anti-ASCT2 monoclonal antibody KM4008 (antibody, V domains shown)
VH: QIQLVQSGPELKKPGETVKISCKASGYTFTTFGMSWVKQVPGKGLKWMGWIHTYAGVPIYGDDFKGRFAFSLETSASTAYLQINNVKNEDTATYFCARRSDNYRYFFDYWGQGTTLTVSS
VL: DIQMTQTTSSLSASLGDRVTISCRASQDIRNYLNWYQRKPHGTVKLLIYYTSRLHSGVPSRFSGSGSGTDYSLTISNLEQEDIATYFCQQGHTLPPTFGGGTKLEIKR
notes: mouse IgG3, kappa (amplified with a mouse Ig kappa primer)
B2: anti-ASCT2 monoclonal antibody KM4012 (antibody, mouse IgG2b, V domains shown)
VH: B1 VH with F32Y, V40T, A55S, F64S, A76G, T78I, N102G
VL: B1 VL with T7I, R38Q, H41D, H92N
notes: mouse IgG2b, kappa
B3: anti-ASCT2 human chimeric antibody cKM4018 (antibody, V domains shown)
VH: EVQLVESGGGLVQSGRSIRLSCAASGFSFSNYYMAWVRQAPSKGLEWVASITKGGGNTYYRDSVKGRFTFSRDNAKSTLYLQMDSLRSEDTATYYCARQVTIAAVSTSYFDSWGQGVMVTVSS
VL: DIVLTQSPALAVSLGQRATISCKTNQKVDYYGNSYVYWYQQKPGQQPKLLIYLASNLASGIPARFSGRGSGTDFTLTIDPVEADDTATYYCQQSRNLPYTFGAGTKLELKR
notes: VH and VL of KM4018 joined to human CH and CL of vector pKANTEX93; IgG class
B4: anti-ASCT2 human chimeric antibody cKM4008 (antibody, V domains shown)
VH: B1 VH
VL: B1 VL
notes: VH and VL of KM4008 joined to human CH and CL of vector pKANTEX93; SDS-PAGE pattern of the IgG class
B5: anti-ASCT2 human chimeric antibody cKM4012 (antibody, V domains shown)
VH: B1 VH with F32Y, V40T, A55S, F64S, A76G, T78I, N102G
VL: B1 VL with T7I, R38Q, H41D, H92N
notes: VH and VL of KM4012 joined to human CH and CL of vector pKANTEX93; IgG class
B6: anti-ASCT2 humanized antibody KM4008HV2LV3 (antibody, V domains shown)
VH: QVQLVQSGSELKKPGAPVKVSCKASGYTFSTFGMSWVRQAPGQGLKWMGWIHTYAGVPIYGDDFKGRFVFSLDTSVSTAYLQISSLKAEDTAVYFCARRSDNYRYFFDYWGQGTTVTVSS
VL: DIQMTQSPSSLSASLGDRVTITCRASQDIRNYLNWYQQKPGKAPKLLIYYTSRLHSGVPSRFSGSGSGTDYTLTISSLQPEDFATYFCQQGHTLPPTFGQGTKLEIK
notes: Expressed from vector pKANTEX93 with human CH and CL; SDS-PAGE pattern of an IgG class antibody
B7: anti-ASCT2 humanized antibody KM4008HV10LV3 (antibody, V domains shown)
VH: B6 VH with V2I, S9P, V20I, S30T, R38K, L86V, V93T, V116L
VL: B6 VL
notes: as for B6

In the first assay the target is T1, human ASCT2-myc/His (fusion protein in …). Nature of the assay: flow cytometry on human ASCT2/CHO cells; '+' = presence of reactivity. (In general: Flow cytometry measures light scatter and fluorescence of single cells or particles in a stream.)
B1: the binding result is recorded as “binds”.
Regarding B2, the binding result was “binds”.

Another assay has as its target T2, mouse EL4 type ASCT2-myc/His …. The assay can be described thus: flow cytometry on mEL4/CHO cells; '+' = presence of reactivity. As to the method:
Using the mouse ASCT2/CHO and mouse/human chimeric ASCT2/CHO cells constructed in Examples 10 and 11 and FITC-labeled anti-mouse immunoglobulin G (H+L) (manufactured by Dako) or ALEXA488-labeled anti-rat immunoglobulin G […] (manufactured by Invitrogen) as the secondary antibody, the reactivity of anti-ASCT2 monoclonal antibodies KM4008, KM4012 and KM4018 was measured in the same manner as in Example 9(1).
In Table 2, the symbols “+”, “−”, and “±” represent the presence of reactivity, the absence of reactivity, and the decrease in reactivity, respectively.
Consider B1, for which the binding result is on record as “binds”.
For the molecule B2, the binding result is “binds”.

The next assay concerns the target T3, human ASCT2 (system ASC amino acid …). Nature of the assay: flow cytometry on OPM-2 cells. As to the method: Each of the human ASCT2-myc/His gene-introduced CHO cell obtained in Example 2, and the multiple myeloma cell line OPM-2 (DSMZ Accession No. ACC50) was cultured in a 5% CO₂ incubator for 3 to 4 days at 37° C. The human ASCT2-myc/His gene-introduced CHO cells were detached with a 0.02% EDTA solution (manufactured by Nacalai Tesque), and in order to avoid the non-specific adsorption of antibodies, the cells were blocked for 30 minutes at ice temperature using 1% BSA-PBS.
The cells were seeded into a 96-well U-bottom plate so as to give a density of 1×10⁵ to 5×10⁵ cells/100 μL/well. The plates were centrifugation at 1,500 rpm for 5 minutes (05PR-22, manufactured by Hitachi Koki), and then the supernatant was removed.
As the primary antibody, the purified antibody which was a test substance was diluted to give a final concentration of 0.01 μg/mL to 10 μg/mL in 1% BSA-PBS, and dispensed to the plate at 100 μL/well, followed by reaction at ice temperature for 60 minutes. After washing the cells with 1% BSA-PBS, FITC-labeled anti-human immunoglobulin G (H+L) (manufactured by Jackson Laboratories) diluted with 1% BSA-PBS was added as the secondary antibody, followed by reaction at ice temperature for 30 minutes protected from light. The cells were washed with 1% BSA-PBS and then suspended in PBS. The fluorescence intensity of the cells was measured by a flow cytometer (Cytomics FC500 MPL, manufactured by Beckman Coulter).
B3: the binding result is listed as “binds”.
With B4, the binding result is “binds”.
The same measure, in the same setting: next, B5: “binds”.

Another assay has the same target. Nature of the assay: flow cytometry on KMS-11 cells.
For B1, the binding result is on record as “binds”.
The same measure, in the same setting: next, B2: “binds”; B6: “binds”; B7: “binds”.

The target of another assay is T1, human ASCT2-myc/His (fusion protein in …). The assay can be described thus: flow cytometry on human ASCT2-myc/His gene-introduced CHO cells.
Consider B3, for which the binding result was “binds”.
The same measure, in the same setting: next, B4: “binds”.
Still for that read-out and setting: next, B5: “binds”; B6: “binds”; B7: “binds”.
